Assay results reported in US20240209094A1 (PIERRE FABRE MEDICAMENT, published 2024).
Several values for one entry are separate records, joined by “and”; a condition that tells them apart may be missing. Equal values may be shown once.

T1: hVISTA-Fc labelled with d2 (human, UniProt Q9H7M9 33-194, labelled with d2 (HTRF acceptor); site not stated)
T1 construct: It may be the same protein as rhVISTA-Fc of the Biacore assay, with a d2 label; also called VISTA-Fc-d2; not shown: Fc
T1 sequence: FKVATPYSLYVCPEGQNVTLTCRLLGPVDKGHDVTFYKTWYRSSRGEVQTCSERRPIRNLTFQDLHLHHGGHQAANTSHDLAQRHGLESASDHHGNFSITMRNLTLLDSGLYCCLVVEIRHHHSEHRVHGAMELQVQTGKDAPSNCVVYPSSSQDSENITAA

T2: recombinant human (rh) VISTA-His protein (human, UniProt Q9H7M9 33-194)
T2 construct: A soluble His-tagged protein is probably the extracellular domain; also called rhVISTA-TagHis; rhVISTA-his (monomer); not shown: His tag
T2 sequence: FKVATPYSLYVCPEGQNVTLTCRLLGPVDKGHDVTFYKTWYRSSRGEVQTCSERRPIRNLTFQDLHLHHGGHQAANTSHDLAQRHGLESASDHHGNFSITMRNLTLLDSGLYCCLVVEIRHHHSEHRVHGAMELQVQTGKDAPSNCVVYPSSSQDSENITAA


Columns and labels:
[1] = molecular target: T1, hVISTA-Fc labelled with d2; assay: HTRF, VISTA-Fc-d2 and PSGL1-His/anti-His-Tb, pH 6; antibody at 0.16 µg/mL; mean of 3 experiments
[2] = molecular target: T1, hVISTA-Fc labelled with d2; assay: HTRF, VISTA-Fc-d2 and PSGL1-His/anti-His-Tb, pH 6; antibody at 2.5 µg/mL; mean of 3 experiments
[3] = molecular target: T1, hVISTA-Fc labelled with d2; assay: HTRF, VISTA-Fc-d2 and PSGL1-His/anti-His-Tb, pH 6; antibody at 0.31 µg/mL; mean of 3 experiments
[4] = molecular target: T1, hVISTA-Fc labelled with d2; assay: HTRF, VISTA-Fc-d2 and PSGL1-His/anti-His-Tb, pH 6; antibody at 5 µg/mL; mean of 3 experiments
[5] = molecular target: T1, hVISTA-Fc labelled with d2; assay: HTRF, VISTA-Fc-d2 and PSGL1-His/anti-His-Tb, pH 6; antibody at 0.63 µg/mL; mean of 3 experiments
[6] = molecular target: T1, hVISTA-Fc labelled with d2; assay: HTRF, VISTA-Fc-d2 and PSGL1-His/anti-His-Tb, pH 6; antibody at 10 µg/mL; mean of 3 experiments
[7] = molecular target: T1, hVISTA-Fc labelled with d2; assay: HTRF competition, VISTA-Fc-d2 and PSGL1-His/anti-His-Tb, pH 6
[8] = molecular target: T1, hVISTA-Fc labelled with d2; assay: HTRF, VISTA-Fc-d2 and PSGL1-His/anti-His-Tb, pH 6; antibody at 1.25 µg/mL; mean of 3 experiments
[9] = molecular target: T2, recombinant human (rh) VISTA-His protein; assay: direct ELISA, rhVISTA-His coated on plate; mean EC50 of n1-n3
Protocol: (§1) After incubation, the coating solution was removed and plates were blocked by adding 250 μl blocking buffer (0.5% gelatin in 1×PBS) for at least 1 hour at 37° C.

[10] = molecular target: T2, recombinant human (rh) VISTA-His protein; assay: indirect ELISA, rhVISTA-His captured by coated anti-His antibody; experiment n2
Protocol: as §1

[11] = molecular target: T2, recombinant human (rh) VISTA-His protein; assay: indirect ELISA, rhVISTA-His captured by coated anti-His antibody; experiment n1
Protocol: as §1

[12] = molecular target: T2, recombinant human (rh) VISTA-His protein; assay: indirect ELISA, rhVISTA-His captured by coated anti-His antibody; experiment n3
Protocol: as §1

[13] = molecular target: T2, recombinant human (rh) VISTA-His protein; assay: direct ELISA, rhVISTA-His coated on plate; Mean EC50 'Prism' n = 3
Protocol: as §1

[14] = molecular target: T2, recombinant human (rh) VISTA-His protein; assay: direct ELISA, rhVISTA-His coated on plate; experiment n1
Protocol: as §1

[15] = molecular target: T2, recombinant human (rh) VISTA-His protein; assay: direct ELISA, rhVISTA-His coated on plate; experiment n3
Protocol: as §1

[16] = molecular target: T2, recombinant human (rh) VISTA-His protein; assay: indirect ELISA, rhVISTA-His captured by coated anti-His antibody; mean EC50 of n1-n3
Protocol: as §1

[17] = molecular target: T2, recombinant human (rh) VISTA-His protein; assay: indirect ELISA, rhVISTA-His captured by coated anti-His antibody; Mean EC50 'Prism' n = 3
Protocol: as §1

[18] = molecular target: T2, recombinant human (rh) VISTA-His protein; assay: direct ELISA, rhVISTA-His coated on plate; experiment n2
Protocol: as §1

Row | percentage of the specific HTRF signal [1] | percentage of the specific HTRF signal [2] | percentage of the specific HTRF signal [3] | percentage of the specific HTRF signal [4] | percentage of the specific HTRF signal [5] | percentage of the specific HTRF signal [6] | IC50 [7] | percentage of the specific HTRF signal [8] | EC50 [9] | EC50 [10] | EC50 [11] | EC50 [12] | EC50 [13] | EC50 [14] | EC50 [15] | EC50 [16] | EC50 [17] | EC50 [18] | Molecule
1 | 89% | 63% | 88% | 50% | 81% | 34% | 333 nM | 68% | – | – | – | – | – | – | – | – | – | – | anti-VISTA R&D Systems #71261 (antibody)
2 | – | – | – | – | – | – | 2.3 nM | – | 1.02 nM | 0.0447 nM | 0.0501 nM | 0.0465 nM | 1.02 nM | 1.04 nM | 0.928 nM | 0.0471 nM | 0.0471 nM | 1.08 nM | anti-VISTA antibody Ab1 (N55D substitution in the CDR-H2) (antibody, human IgG1, kappa, V domains shown, N-terminal glutamine mainly in the pyroglutamic acid form; N-glycan at Asn298; most of the C-terminal lysines clipped, also called anti-VISTA Ab1) VH: QVQLVQSGAEVKKPGASVKISCKASGFSFTGYTMNWVRQAPGQGLEWIGLISPYDGGTSYAQKFQGRATLTVDTSTSTAYMELSSLRSEDTAVYYCARRAYGYAMDYWGQGTLVTVSS VL: EIVLTQSPATLSLSPGERVTMSCSASSSVSYMYWYQQKPGQAPRLLIYDTSNLASGVPARFSGSGSGTDYTLTISSMEPEDFAVYYCQQWSSYPFTFGQGTKLEIKR
3 | – | – | – | – | – | – | – | – | 0.671 nM and 0.961 nM | 0.0342 nM and 0.0418 nM | 0.0458 nM and 0.0382 nM | 0.0386 nM and 0.038 nM | 0.959 nM and 0.671 nM | 0.641 nM and 1.1 nM | 0.645 nM and 0.901 nM | 0.0396 nM and 0.0393 nM | 0.0393 nM | 0.728 nM and 0.877 nM | monoclonal antibody Ab3 (unmutated antibody) (antibody, human IgG1, kappa, V domains shown, partly deamidated at N55 (mixture of N55/N55, N55/D55 and D55/D55 charge variants), The batch is kept in the printed label of each row; also called Ab 3 batch 1; Ab 3 batch 2) VH: QVQLVQSGAEVKKPGASVKISCKASGFSFTGYTMNWVRQAPGQGLEWIGLISPYNGGTSYAQKFQGRATLTVDTSTSTAYMELSSLRSEDTAVYYCARRAYGYAMDYWGQGTLVTVSS VL: EIVLTQSPATLSLSPGERVTMSCSASSSVSYMYWYQQKPGQAPRLLIYDTSNLASGVPARFSGSGSGTDYTLTISSMEPEDFAVYYCQQWSSYPFTFGQGTKLEIKR
